Reference: article PMC6595180

Tests used:
[1] = molecular target: BG505 SOSIP.v4.1-GT1.1 gp140 trimer (HIV-1 (BG505)); assay: AUC; sedimentation velocity, 20°C, 40,000 rpm, detection at 280 nm, 0.5 mg/mL in formulation buffer (20 mM Tris, 100 mM NaCl pH 7.5); continuous c(s) distribution; also after 0, 1 and 5 freeze-thaw cycles
[2] = molecular target: BG505 SOSIP.664 gp140 trimer (HIV-1 (BG505)); assay: as above

Row | Substance | stoichiometry N [1] | stoichiometry N [2]
1 | BG505 SOSIP.v4.1-GT1.1 gp140 trimer (complex) | 3 | –
2 | BG505 SOSIP.664 gp140 trimer (complex) | – | 3
